{
  "source": "paper PMC8535469",
  "about": "“Insight into the Binding and Hydrolytic Preferences of hNudt16 Based on Nucleotide Diphosphate Substrates” (International Journal of Molecular Sciences, 2021)",
  "proteins": {"B1": {"name": "human Nudt16 protein (hNudt16), wild type (enzyme, UniProt Q96DE0 1-195, looked up)", "chain": "MAGARRLELGEALALGSGWRHACHALLYAPDPGMLFGRIPLRYAILMQMRFDGRLGFPGGFVDTQDRSLEDGLNRELREELGEAAAAFRVERTDYRSSHVGSGPRVVAHFYAKRLTLEELLAVEAGATRAKDHGLEVLGLVRVPLYTLRDGVGGLPTFLENSFIGSAREQLLEALQDLGLLQSGSISGLKIPAHH", "notes": "human Nudt16 (hNudt16), NUDIX hydrolase; also called hNudt16 WT"}},
  "molecular_target": "the molecule itself",
  "experiment": "SAXS; 2.618 mg/mL hNudt16 in 20 mM HEPES pH 7.9, 300 mM NaCl, 10% glycerol, 0.5 mM TCEP, 20 mM MgCl2; room temperature; scattering compared with crystal structures of the dimer (CRYSOL) and ab initio model (DAMMIN)",
  "data": [
    {"protein": "B1", "values": [
      {"measurement": "stoichiometry N", "value": 2}
    ]}
  ]
}
